Here are results for three substances from publication PMC6051998.

The target in assay [1] is MffΔTM (residues 1–217), dimeric variant. As to the kind of experiment: SEC-MALS; MffΔTM (100 μM) and GST (100 μM) on Superose 6 10/300 GL.
For assay [2], the target named is glutathione S-transferase (GST). The description is as above.
Assay [3] deals with Drp1 short GG (minimal GTPase-GED construct of Drp1, short splice variant) (human) (UniProt O00429). The experiment in a line: SEC-MALS; GG constructs after 30 min at room temperature with the transition-state analog GDP.AlFx (2 mM GDP, 4 mM MgCl2, 2 mM AlCl3, 20 mM NaF); Drp1 GG 25 μM, Dyn1 GG and GG-PRD 15 μM; Superdex 75 10/300 GL.

Chain of glutathione S-transferase (GST) (enzyme) (P08515 2-218): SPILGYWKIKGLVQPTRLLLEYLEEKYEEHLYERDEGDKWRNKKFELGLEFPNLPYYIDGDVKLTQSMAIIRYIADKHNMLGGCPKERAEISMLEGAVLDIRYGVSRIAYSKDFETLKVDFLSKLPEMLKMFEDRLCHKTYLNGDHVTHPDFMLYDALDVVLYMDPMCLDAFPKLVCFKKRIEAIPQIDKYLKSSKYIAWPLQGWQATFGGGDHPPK

Substance “MffΔTM (residues 1–217), dimeric variant (domain or fragment)” yielded a stoichiometry N in assay [1] of 2.

As to “glutathione S-transferase (GST) (enzyme)”, the stoichiometry N in assay [2] was found to be 2.

“Drp1 short GG (minimal GTPase-GED construct of Drp1, short splice variant) (from UniProt O00429-4 1-327; O00429-4 1-327) (domain or fragment)” had a stoichiometry N in assay [3] of 2.
